Laboratory results as given in PMC13507205, “FAIMS-GPF XL-MS: crosslinking-mass spectrometry based on gas-phase fractionation” (Nature Communications, 2026).

Target: T1, CDK7 kinase fused to a C-terminal Strep-tag II sequence (UniProt P50613 1-346)
T1 construct: No cleavage of the tag is described; The theoretical mass of the trimer (113,879 Da with one phosphorylation) would fit whole chains; source: Sf21 cells, baculovirus, purified as the CAK complex (Strep-Tactin XT, eluted with biotin)
Test: cross-linking; purified CAK complex (co-expressed, co-purified) at 0.7 mg/mL in 20 mM Hepes pH 8, 150 mM KCl, 1 mM EDTA, 1 mM DTT, 50 mM biotin; DSSO at 200 molar excess, 45 min, RT; three replicates; 4-CV FAIMS-GPF nLC-MS/MS; XLs kept if in at least 2 of 3 replicates
Conditions: both partners purified

T1 sequence (P50613 whole entry, the tested form may be a part): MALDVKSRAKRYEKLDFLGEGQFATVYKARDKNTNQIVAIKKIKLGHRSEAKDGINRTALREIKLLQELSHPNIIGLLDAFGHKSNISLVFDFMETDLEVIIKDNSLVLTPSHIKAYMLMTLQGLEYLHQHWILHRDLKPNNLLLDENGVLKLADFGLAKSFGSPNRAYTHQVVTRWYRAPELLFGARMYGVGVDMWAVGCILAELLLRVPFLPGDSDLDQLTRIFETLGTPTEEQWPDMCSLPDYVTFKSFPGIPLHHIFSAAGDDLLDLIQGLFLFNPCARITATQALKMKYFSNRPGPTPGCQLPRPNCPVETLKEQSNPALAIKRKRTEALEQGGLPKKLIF

B1: MAT1 (natural protein, UniProt P51948 1-309, looked up)
chain: MDDQGCPRCKTTKYRNPSLKLMVNVCGHTLCESCVDLLFVRGAGNCPECGTPLRKSNFRVQLFEDPTVDKEVEIRKKVLKIYNKREEDFPSLREYNDFLEEVEEIVFNLTNNVDLDNTKKKMEIYQKENKDVIQKNKLKLTREQEELEEALEVERQENEQRRLFIQKEEQLQQILKRKNKQAFLDELESSDLPVALLLAQHKDRSTQLEMQLEKPKPVKPVTFSTGIKMGQHISLAPIHKLEEALYEYQPLQIETYGPHVPELEMLGRLGYLNHVRAASPQDLAGGYTSSLACHRALQDAFSGLFWQPS
notes: MAT1, subunit of the CAK heterotrimer; source: Sf21 cells, baculovirus, purified as the CAK complex (Strep-Tactin XT, eluted with biotin)
binding result: binds
